Laboratory results reported in patent US20030041342.

Molecular target: maize CDK (cyclin-dependent protein kinase) from immature ear extract

B1: GST-ZMWEE1 (glutathione S-transferase ZMWEE1 fusion protein, from pGEX2Tzmwee1, made in E. coli) (protein)
chain: CTPDYITPEMPQVANEFDDDDKENIPCPKSPEKSANPRSKRYRTDCSPKAREVTDFSFDHQITPVLFDSLTRDDSEEEQPKQPALEKRGGYVSQSAVALRCRVMPPPCVKNPYLNTDPCIDAAVYGGRQCNSAVFSPSIGGNGLSRYRTDFHEIEKIGYGNFSVVFKVLNRIDGCLYAVKRSIKQLHNDMERRQAVKEVQAMAALGSHENIVRYFTSWFENEQLYIQMELCDRCLSMNRNQPVKRGEALELLYQICKGLDFMHERGIAHLDVKPDNIYVRNGIYKLGDFGCATLVNRSLAIEDGDSRYMPPEMLNDKYEHLDKVDIFSLGAAVYELIRGTPLPESGSHFTSIREGKIALLPGCPMQFQSLIKSMMDPDPVRRPSAKEILRHPSFDKLHKASSK
CDK activity (histone H1 kinase activity) of CDK adsorbed by p13^suc1: GST-ZMWEE1, with or without pre-incubation, inhibited CDK activity | histone H1-kinase activity in crude immature ear extract: GST-ZMWEE1 inhibits the histone H1-kinase activity in the extract
